Measurements from patent US9206239B2, “Treatment of cancers with immunostimulatory HIV Tat derivative polypeptides” (PIN Pharma, Inc., priority 2009, dated 2015).

How the values were obtained:
4T1 breast tumors = assay: Kaplan-Meier survival of mice bearing 4T1 breast tumors; type: in vivo, BALB/c mice; details: for survival: day 47
Method: (§1) BALB/c were injected (SC) with 1×10^4 4T1, 1×10^5 TS/A or 2×10^5 SM1 cells, respectively, in the left mammary pad on day 0. Immunotherapy was performed by directly injecting a Tat derivative into the right flank at 0, 7, 12, and 17 days after establishment of tumors. The control group received PBS injection. […] Tumor burden (tumor volume) was measured and recorded three times weekly. Animals were sacrificed when tumors reached a volume of 15 mm in diameter and the tumors harvested and weighed.
Data were statistically analyzed using Student's t-test (Graph Pad Prism version 5; GraphPad). Data from animal survival experiments were statistically analyzed using log-rank test (Graph Pad Prism version 5).
To determine whether Nani-P2 treatment could extend survival in addition to shrinking primary tumors in mice, treatment protocols using various dosing schedules and routes (SC, IV or IT) of administration of 40 ng Nani-P2 were performed. Cohorts of ten mice per group were followed for length of survival, as assessed by use of the Kaplan-Meier product limit method. As per Columbia University Medical Center Animal Facility regulations, each mouse was euthanized at a mean tumor diameter of approximately 15 mm, or earlier if the mouse became moribund, making one of these two outcomes the defining criteria for fatality.

4T1 cells = assay: Repeated dosing of Nani-P2 alternating with cyclophosphamide in 4T1 tumor-bearing mice; type: in vivo, BALB/c mice
Method: Four groups of 10 BALB/c mice were implanted with 1×10^4 4T1 cells SC into the mammary fat pad. Treatment was initiated when tumor diameters reached 4-5 mm, on day 10. Control mice were injected IV with PBS at 3 days intervals, while alternating treatment mice received 3 doses of drug every 3 days in rotating 10 day cycles. Tumor burden (tumor size mm^3) was calculated using a standard formula. CY: (cyclophosphamide alone) mice were injected IP weekly with 80 mg/kg per mouse beginning on day 10. Cy/Nani-P2: (cyclophosphamide first followed by Nani-P2) mice were first injected IP with cyclophosphamide (80 mg/kg) at 3 days intervals for three doses starting at day 10 and then injected IV with Nani-P2 (40 ng) at 3 days intervals for three doses in rotation. The cycle of 3 doses of CY followed by 3 doses of Nani-P2 was repeated until day 50. Nani-P2/CY: (Nani-P2 first followed by cyclophosphamide): mice were first injected IV with Nani-P2 (40 ng) at 3 day intervals for 3 doses starting on day 10 and then injected i.p. with cyclophosphamide at 3 day intervals in rotation. The cycle of 3 doses of Nani-P2 followed by 3 doses of CY was repeated until day 50.

4T1 breast tumor cells = assay: 4T1 breast tumor growth in BALB/c mice; type: in vivo
Excerpt: Female BALB/c mice 6 to 8 weeks old were purchased from the Jackson Laboratory (Bar Harbor, […].). Mice were acclimated for at least 1 week before use. Mice were kept in pathogen-free conditions at the Animal Maintenance Facility of the Columbia University of Medical Center and all experiments were approved by the Institutional Animal Care and Use Committee of Columbia University of Medical Center.
4T1 cells, a 6-thioguanine-resistant cell line derived from a BALB/c spontaneous mammary carcinoma was obtained from ATCC; TS/A, a murine adenocarcinoma cell line was provided by Dr. Sandra Demaria (Demaria S. et al. Clin Cancer Res. 11:728-34, 2005); and SM1, the BALB/C-derived mammary carcinoma was kindly was provided by Dr. James Allison, University of California, Berkeley. All tumor cell lines were cultured in DMEM, supplemented with 2 mM L-glutamine, 10 mM HEPES, 150 units/ml penicillin/streptomycin, 10% heat-inactivated FCS (Invitrogen), 50 μM 2-mercaptoethanol (Sigma), and 50 mg/L gentamicin (Lanza).
as §1
The therapeutic effect of systemic administration of synthetic, Tat-derived compositions in murine models of breast cancer was investigated. To compare the relative protection conferred by a small panel of different derivatives against primary breast tumor growth, female BALB/c mice were injected with 1×10^4 4T1 breast tumor cells SC into the mammary pad, and then treated with 400 ng partially-purified Tat derivatives at day 0, 7, 14 and 21 (SC injection in PBS) into the draining axillary lymph nodes.

[1] = day 50, Nani-P2 alternating with cyclophosphamide

B1: Nani-P2: HIV Tat derivative polypeptide, SEQ ID NO: 3; derivatized Tat amino terminus from an African Green Monkey variant SIV (protein)
chain: MDPKGEEDQDVSHQDLIKQYRKPRTACNNCYCKKCCFHCYACFLRKGLGITYHAFRTRRKKIASADRIPVPQQSISIRGRDSQTTQESQKKVEEQAKANLRISRKNLGDETRGPVGAGN
modifications: Nani-P2 modified HIV Tat sequence
notes: derivatized Tat amino terminus from an African Green Monkey variant SIV
For B1, the “survival, intratumoral administration” value (4T1 breast tumors; IT, 40 ng weekly x3, tumors established fourteen days) was “slightly inferior to SC administration”, the survival (4T1 breast tumors; IV, 40 ng weekly x3, tumors established fourteen days, p<0.005) was 60% and the survival (4T1 breast tumors; SC, 40 ng weekly x3, tumors established fourteen days, p<0.05) was 20%. The “treated mice still alive” value (4T1 breast tumors; day 48, 40 ng SC, 4 doses over 21 days from day 0, p<0.001) was 35%, the “duration of tumor growth inhibition and survival benefits past the last dosing” value (4T1 breast tumors; established 4T1 tumors, treated intravenously) was “at least 36 days” and the “survival benefit vs weekly cyclophosphamide” value (4T1 cells; Nani-P2 bolus treatment alternating with cyclophosphamide, p=0.0001) was “highly statistically significant”. The “mice in partial remission” value (4T1 cells; [1]) was 9/10, the “mice in total remission” value (4T1 cells; [1]) was 3/10 and the “tumor burden compared to control mice receiving PBS” value (4T1 breast tumor cells; 400 ng partially-purified derivative SC day 0, 7, 14, 21, apparent from day 15 (p<0.05)) was “significantly reduced tumor burden”. The “decrease of tumor burden on average” value (4T1 breast tumor cells; SC therapy initiated on day 0 after tumor cell injection) was 53%, the “difference in primary tumor burden between Nani-P2 and Nani-P1-treated tumors” value (4T1 breast tumor cells; day 21 (final dosing), 400 ng SC, p<0.01) was 18 mm^3 and the “anti-tumor efficacy on increasing the dose” value (4T1 breast tumor cells; dose increased to 400 ng and 2 μg (data not shown)) was “no further anti-tumor efficacy”.
